Reference: patent publication US20140235553

Experiments:
[1] = test system: NTD-αA crystallin fusion protein
[2] = test system: NTD-αB crystallin fusion protein

## lysozyme
[1]
  CLA: suppression of chemically-induced aggregation of substrate protein: These proteins also displayed CLA, as evidenced by suppressing the chemically-induced aggregation of substrate proteins such as lysozyme
[2]
  CLA: suppression of chemically-induced aggregation of substrate protein: These proteins also displayed CLA, as evidenced by suppressing the chemically-induced aggregation of substrate proteins such as lysozyme
